In this assay the target is human Rab7 Q67L (residues 2–195), GTP-loaded (human) (UniProt P51149). The assay is described as follows: crystal structure; purified PDZD8 CC and Rab7 Q67L (1 mM GTP) mixed 1:1 at total 10 mg/ml, incubated 1 h at room temperature; crystals in 0.1 M Tris-HCl pH 8.0, 25% PEG 1000, 0.1 M NaCl; space group P6(5), 2.1 Å.
Sequence of human Rab7 Q67L (residues 2–195), GTP-loaded (human) (P51149 2-195 Q67L): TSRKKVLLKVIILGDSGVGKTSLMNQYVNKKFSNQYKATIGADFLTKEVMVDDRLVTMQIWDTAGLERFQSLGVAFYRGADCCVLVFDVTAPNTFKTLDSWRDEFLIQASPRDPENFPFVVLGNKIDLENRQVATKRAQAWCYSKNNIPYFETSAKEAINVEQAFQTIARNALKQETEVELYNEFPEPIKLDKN

Sequence of human PDZD8 C-terminal coiled-coil (CC) domain, residues 994–1123 (crystallisation construct) (Q8NEN9 994-1123): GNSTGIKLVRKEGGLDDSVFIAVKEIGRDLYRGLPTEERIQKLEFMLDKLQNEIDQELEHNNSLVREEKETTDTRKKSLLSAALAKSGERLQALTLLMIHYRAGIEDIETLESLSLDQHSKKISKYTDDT

Substance “human PDZD8 C-terminal coiled-coil (CC) domain, residues 994–1123 (crystallisation construct) (from UniProt Q8NEN9 994-1123) (domain or fragment)” yielded a stoichiometry N (Rab7 per PDZD8 CC) of 2.

The values are drawn from publication PMC8458453.
